Laboratory results: the supplement of paper PMC9112550, “Optimization of the antimicrobial peptide Bac7 by deep mutational scanning” (BMC Biology, 2022)

Test system: Escherichia coli TOP10
Test: shrunken log2 fold change of peptide-encoding DNA abundance (4.5 h post-induction vs induction); higher = less antimicrobial activity (less host growth inhibition)
Details: time post-induction: 4.5 h; library: site-saturation at positions 5, 18, 19, 20
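Note: peptides expressed intracellularly from a pBAD plasmid library in pooled LB shake-flask culture, induced with 0.3% L-arabinose, DNA abundance read by NGS, three biological replicates, DESeq2 with apeglm shrinkage.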

| Sequence | shrunken log2 fold change |
| --- | --- |
| RRIRTRPPRLPRPRPRPGAFPRP | 2.41 |
| RRIRMRPPRLPRPRPRPFLPPRP | -0.346 |
| RRIRQRPPRLPRPRPRPPGNPRP | 0.246 |
| RRIRSRPPRLPRPRPRPDKMPRP | -0.15 |
| RRIRRRPPRLPRPRPRPFGQPRP | -0.336 |
| RRIRCRPPRLPRPRPRPCRVPRP | -0.438 |
| RRIRSRPPRLPRPRPRPPVWPRP | 0.48 |
| RRIRWRPPRLPRPRPRPFRGPRP | 0.0269 |
| RRIRFRPPRLPRPRPRPDCIPRP | -0.349 |
| RRIRLRPPRLPRPRPRPSHDPRP | -0.385 |
| RRIRNRPPRLPRPRPRPEMSPRP | -0.0389 |
| RRIRNRPPRLPRPRPRPNDYPRP | -0.365 |
| RRIRNRPPRLPRPRPRPGEYPRP | 0.0536 |
| RRIRVRPPRLPRPRPRPATHPRP | -0.0884 |
| RRIRIRPPRLPRPRPRPVAYPRP | -0.0713 |
| RRIRHRPPRLPRPRPRPVAWPRP | 0.252 |
| RRIRGRPPRLPRPRPRPPIDPRP | 0.888 |
| RRIRHRPPRLPRPRPRPGKHPRP | -0.362 |
| RRIRQRPPRLPRPRPRPRFLPRP | -0.0439 |
| RRIRVRPPRLPRPRPRPVQFPRP | -0.488 |
| RRIRRRPPRLPRPRPRPEPAPRP | 0.812 |
| RRIRYRPPRLPRPRPRPNECPRP | 0.0256 |
| RRIRQRPPRLPRPRPRPQNRPRP | -0.0176 |

| Sequence | shrunken log2 fold change |
| --- | --- |
| RRIRQRPPRLPRPRPRPMDGPRP | -0.199 |
| RRIRYRPPRLPRPRPRPMQIPRP | -6.27e-05 |
| RRIRERPPRLPRPRPRPRFFPRP | -0.00349 |
| RRIRHRPPRLPRPRPRPIFWPRP | -0.0136 |
| RRIRQRPPRLPRPRPRPHVEPRP | -0.00703 |
| RRIRPRPPRLPRPRPRPRQGPRP | 0.236 |
| RRIRHRPPRLPRPRPRPVTSPRP | -0.000369 |
| RRIRIRPPRLPRPRPRPYVGPRP | -0.384 |
| RRIRGRPPRLPRPRPRPSTRPRP | 0.114 |
| RRIRMRPPRLPRPRPRPHTNPRP | 0.0722 |
| RRIRNRPPRLPRPRPRPPCTPRP | -0.234 |
| RRIRARPPRLPRPRPRPEAEPRP | 1.61 |
| RRIRHRPPRLPRPRPRPNHIPRP | -0.844 |
| RRIRWRPPRLPRPRPRPWAQPRP | -0.381 |
| RRIRHRPPRLPRPRPRPYCAPRP | -0.346 |
| RRIRSRPPRLPRPRPRPCEHPRP | 0.135 |
| RRIRPRPPRLPRPRPRPAMLPRP | 0.233 |
| RRIRQRPPRLPRPRPRPMHPPRP | 0.203 |
| RRIRRRPPRLPRPRPRPNQGPRP | 0.134 |
| RRIRDRPPRLPRPRPRPAENPRP | 0.224 |
| RRIRCRPPRLPRPRPRPTKFPRP | -0.305 |
| RRIRIRPPRLPRPRPRPSPVPRP | -0.297 |
| RRIRMRPPRLPRPRPRPLDGPRP | 0.844 |

| Sequence | shrunken log2 fold change |
| --- | --- |
| RRIRRRPPRLPRPRPRPTFLPRP | 0.115 |
| RRIRNRPPRLPRPRPRPYGPPRP | -0.00663 |
| RRIRMRPPRLPRPRPRPPIPPRP | 0.556 |
| RRIRSRPPRLPRPRPRPCMEPRP | -0.292 |
| RRIRTRPPRLPRPRPRPHCEPRP | 0.023 |
| RRIRRRPPRLPRPRPRPYCAPRP | -0.0524 |
| RRIRPRPPRLPRPRPRPEDRPRP | 0.0448 |
| RRIRRRPPRLPRPRPRPLKMPRP | 0.156 |
| RRIRARPPRLPRPRPRPAFEPRP | 0.702 |
| RRIRYRPPRLPRPRPRPKVGPRP | 0.0316 |
| RRIRARPPRLPRPRPRPHHCPRP | -0.859 |
| RRIRWRPPRLPRPRPRPAGDPRP | 0.363 |
| RRIRIRPPRLPRPRPRPQALPRP | -0.0788 |
| RRIRKRPPRLPRPRPRPHVNPRP | 0.0388 |
| RRIRFRPPRLPRPRPRPDGRPRP | 0.023 |
| RRIRRRPPRLPRPRPRPHNKPRP | -0.276 |
| RRIRDRPPRLPRPRPRPASLPRP | 0.416 |
| RRIRSRPPRLPRPRPRPMLAPRP | 0.244 |
| RRIRWRPPRLPRPRPRPSHDPRP | 0.023 |
| RRIRSRPPRLPRPRPRPHQIPRP | 0.0975 |
| RRIRFRPPRLPRPRPRPRARPRP | 0.661 |
| RRIRERPPRLPRPRPRPNSWPRP | -0.0404 |
| RRIRGRPPRLPRPRPRPHVYPRP | 0.469 |

| Sequence | shrunken log2 fold change |
| --- | --- |
| RRIRNRPPRLPRPRPRPIWDPRP | -0.14 |
| RRIRNRPPRLPRPRPRPFQKPRP | -0.185 |
| RRIRSRPPRLPRPRPRPQKWPRP | -0.0746 |
| RRIRGRPPRLPRPRPRPCSFPRP | 0.2 |
| RRIRCRPPRLPRPRPRPSDQPRP | -0.0132 |
| RRIRYRPPRLPRPRPRPDILPRP | 0.0101 |
| RRIRNRPPRLPRPRPRPLRYPRP | 0.0165 |
| RRIRFRPPRLPRPRPRPFTTPRP | -0.445 |
| RRIRKRPPRLPRPRPRPTAKPRP | 0.00802 |
| RRIRGRPPRLPRPRPRPRDDPRP | 0.536 |
| RRIRIRPPRLPRPRPRPDWAPRP | -0.0489 |
| RRIRPRPPRLPRPRPRPVKKPRP | -0.016 |
| RRIRDRPPRLPRPRPRPRTTPRP | 0.0893 |
| RRIRMRPPRLPRPRPRPSIVPRP | -0.106 |
| RRIRFRPPRLPRPRPRPVFTPRP | -0.0271 |
| RRIRNRPPRLPRPRPRPFIEPRP | -0.412 |
| RRIRIRPPRLPRPRPRPKKSPRP | -0.202 |
| RRIRYRPPRLPRPRPRPGFKPRP | -0.579 |
| RRIRLRPPRLPRPRPRPKNMPRP | -0.448 |
| RRIRVRPPRLPRPRPRPSDAPRP | -0.203 |
| RRIRIRPPRLPRPRPRPDLQPRP | -0.0567 |
| RRIRFRPPRLPRPRPRPFANPRP | -0.124 |
